For two substances, percent FRET positive cells results are on record in paper PMC3366918.

In assay [1] the target is HIV-1 Rev wildtype, fused at its carboxy terminus to CFP (donor) or YFP (acceptor) (HIV-1 strain HXB3). In words: FRET or BRET. A general note: Bioluminescence resonance energy transfer reports proximity on the nanometre scale.
In assay [2] the target is ZipRevSLT40: yeast GCN4 leucine zipper fused to the amino terminus of RevSLT40, with CFP or YFP at the carboxy terminus (yeast | HIV-1 strain HXB3). Briefly: FRET or BRET.

In assay [1], “HIV-1 Rev wildtype, fused at its carboxy terminus to CFP (donor) or YFP (acceptor) (natural protein)” showed a percent FRET positive cells of 80.3%.
“ZipRevSLT40: yeast GCN4 leucine zipper fused to the amino terminus of RevSLT40, with CFP or YFP at the carboxy terminus” came in with a percent FRET positive cells in assay [2] of 41.9%.
